What was measured:
Rat-2 fibroblasts = experiment: Z-axes series sequential images, relative height of nodules; assay type: cell-based; details: FMOD and TGF-β1 treatment
Description: But for the nodules formed with FMOD and TGF-β1 treatment (yellow arrows), the cells were stacked on top of one another to a height of about 48 μm.

Rat-2 cells = experiment: Rat-2 cell migration by scratching method; assay type: cell-based
Protocol: 1×10^6 cell/well Rat-2 cells were seeded in 6-well plated with 3 ml DMEM-10% FBS. After 6 hours for adhesion, fresh DMEM-0.5% FBS medium was changed for serum-starving overnight. After pre-warmed DMEM rinsing, four wounds (each 1 mm wide; two horizontal and two vertical) were scratched employing a 1-ml tip for each treatment group. Cells were rinsed by DMEM for three times, followed by incubation with treatment medium [DMEM-0.5 FBS containing 100 pM (2.5 ng/ml) TGF-β1 (SEQ ID NO:64) or -β3 (SEQ ID NO:66) w/o 200 nM (11.2 μg/ml) FMOD (SEQ ID NO:1)] for 24 hours. Photos were captured at both 0-h and 24-h after the scratching. The unclosed distance was measured and quantified as an average gap (A) and migration index (B). Similar results were reproduced in four independent experiments. The scale bar in (A) equal to 100 The asterisks in (B) present P<0.05.
Similar to FMOD (whole protein), the effect of FMOD peptides and/or TGF-β on cell migration was also evaluated by scratching method (FIGS. 18C and 25D). At the same time, cell migration/invasion in Matrigel was documented at 100× magnificent after 24 hour treatment and quantitated using DAPI nuclear staining (100 rather than 200× magnification was used because one group's invasion is quite low) (see the results in FIG. 20A and DAPI pictures in FIG. 20B). Passage 18 Rat-2 cells (20,000 cells/well) were used for the test under the treatment of 100 pM TGF-β1 (SEQ ID NO:64)/133 (SEQ ID NO:66) with/without 200 nM FMOD-F07-40C in DMEM-0.5% FBS.

B1: FMOD: recombinant human fibromodulin whole protein (SEQ ID NO:1) produced in CHO-K1 (protein, listed as Homo sapiens)
chain: MQWTSLLLLAGLFSLSQAQYEDDPHWWFHYLRSQQSTYYDPYDPYPYETYEPYPYGVDEGPAYTYGSPSPPDPRDCPQECDCPPNFPTAMYCDNRNLKYLPFVPSRMKYVYFQNNQITSIQEGVFDNATGLLWIALHGNQITSDKVGRKVFSKLRHLERLYLDHNNLTRMPGPLPRSLRELHLDHNQISRVPNNALEGLENLTALYLQHNEIQEVGSSMRGLRSLILLDLSYNHLRKVPDGLPSALEQLYMEHNNVYTVPDSYFRGAPKLLYVRLSHNSLTNNGLASNTFNSSSLLELDLSYNQLQKIPPVNTNLENLYLQGNRINEFSISSFCTVVDVVNFSKLQVLRLDGNEIKRSAMPADAPLCLRLASLIEI
In the case of B1, the “height of stacked cells in nodules” value (Rat-2 fibroblasts) is reported as “about 48 μm”, the “cell migration, scratch” value (Rat-2 cells; 200 nM combined with 100 pM TGF-β1, 24 hours) is reported as “induced significant migration” and the “cell migration, scratch” value (Rat-2 cells; 200 nM combined with 100 pM TGF-β3, 24 hours) is reported as “decreased TGF-β3 mediated inhibition of migration”. For the same molecule, the “cell migration, scratch” value (Rat-2 cells; alone (200 nM FMOD or 100 pM TGF-β), 24 hours) was “induced Rat-2 minimal migration”.

Reference: patent US20160304573A1, “FIBROMODULIN PEPTIDE” (The Regents of the University of California, priority 2010, published 2016)
